Reference: patent US20250295803A1, “5T4 ANTIBODY-DRUG CONJUGATES AND USES THEREOF” (EXELIXIS, INC., priority 2022, published 2025)

Assays:
[1] = target: T1, rat 5T4 on transfected HEK293 and CHO cells (rat, UniProt Q5PQV5 32-426); experiment: cell binding on transfected HEK293 and CHO cells
T1 construct: whole, on cells
T1 sequence (looked up): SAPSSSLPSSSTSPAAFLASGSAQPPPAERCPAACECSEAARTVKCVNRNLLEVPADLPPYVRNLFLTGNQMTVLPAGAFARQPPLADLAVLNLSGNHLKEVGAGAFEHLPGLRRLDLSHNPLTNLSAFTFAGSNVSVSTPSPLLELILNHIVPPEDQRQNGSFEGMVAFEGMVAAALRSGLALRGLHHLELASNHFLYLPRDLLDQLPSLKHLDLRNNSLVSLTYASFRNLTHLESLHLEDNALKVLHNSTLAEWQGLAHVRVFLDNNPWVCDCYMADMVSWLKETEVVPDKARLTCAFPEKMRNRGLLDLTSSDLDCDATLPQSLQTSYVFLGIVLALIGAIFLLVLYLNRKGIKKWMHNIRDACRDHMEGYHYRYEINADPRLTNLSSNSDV

[2] = target: T2, unconjugated human TPBG/5T4 protein with a c-terminal polyhistidine and Avi tag (AcroBiosystems Cat. No. … (human, UniProt Q13641 32-355)); experiment: ELISA on coated human 5T4 His-Avi (Acro TPG-H52E5); antibody condition: PBS Time 0
T2 construct: Bought protein; also called Acro TPGH52E5; Acro Catalog No. TPGH52E; not shown: C-terminal polyhistidine and Avi tag
T2 sequence: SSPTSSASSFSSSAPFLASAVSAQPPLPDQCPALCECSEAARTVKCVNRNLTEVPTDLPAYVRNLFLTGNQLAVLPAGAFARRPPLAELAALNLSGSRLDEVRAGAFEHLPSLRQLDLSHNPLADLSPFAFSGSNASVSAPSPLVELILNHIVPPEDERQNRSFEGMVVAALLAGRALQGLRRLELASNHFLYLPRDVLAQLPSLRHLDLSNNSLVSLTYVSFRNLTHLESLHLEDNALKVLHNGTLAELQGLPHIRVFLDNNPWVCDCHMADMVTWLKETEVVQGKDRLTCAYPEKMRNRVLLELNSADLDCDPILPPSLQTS
Description: (§1) A. Normal Binding Unconjugated antibodies were tested for their ability to bind to human 5T4 (hu5T4) using ELISA. On Day 1, unconjugated human TPBG/5T4 protein with a c-terminal polyhistidine and Avi (AVITAG™) tag (AcroBiosystems (Newark, DE, USA), Cat. No. TPG-H52E5) was diluted 2 μg/mL in PBS, mixed thoroughly, plated 100 μL per well in a 96-well plate (Nunc MAXISORP®) and incubated overnight at 4° C.
3. Oxidative Stress. Several unconjugated antibodies were tested for their ability to bind to 5T4 using ELISA in an oxidative environment. Solutions of 1 mg/mL to 10 mg/mL of antibody in 20 mM citrate/50 mM NaCl at a pH of 5.5 were prepared and stored at 37° C. for 1 to 2 weeks.

[3] = target: T2, unconjugated human TPBG/5T4 protein …; experiment: ELISA on coated human 5T4 His-Avi (Acro TPG-H52E5); antibody condition: pH 5.5 Day 0
Description: as §1
2. Low pH Stress Test. Several unconjugated antibodies were tested for their ability to bind to 5T4 using ELISA under acidic (low pH) conditions. Solutions of 1 mg/mL to 10 mg/mL of antibody in […] were prepared and stored at 37° C. for 1 to 2 weeks.

[4] = target: T2, unconjugated human TPBG/5T4 protein …; experiment: ELISA on coated human 5T4 His-Avi (Acro TPG-H52E5); antibody condition: pH 5.5 Day 14
Description: as §1
2. Low pH Stress Test. Several unconjugated antibodies were tested for their ability to bind to 5T4 using ELISA under acidic (low pH) conditions. […]

[5] = target: T2, unconjugated human TPBG/5T4 protein …; experiment: ELISA on coated human 5T4 His-Avi (Acro TPG-H52E5); antibody condition: PBS + H2O2 time 24 hr.
Description: as §1
3. Oxidative Stress. Several unconjugated antibodies were tested for their ability to bind to 5T4 using ELISA in an oxidative environment. […]

[6] = target: T2, unconjugated human TPBG/5T4 protein …; experiment: Octet, antibody on AHC sensors, human 5T4 in solution (monovalent); Acro TPGH52E5 Lot B465-87AF1-JP
Description: Monovalent binding assays were employed to determine the relative affinity of each 5T4 binder obtained by the phage display in Example 1 to human 5T4. Human 5T4 was purchased from Acro Biosystems (Acro Catalog No. TPGH52E) and also produced separately. The monovalent interaction of binders to human 5T4 was monitored using an Octet (Pall ForteBio) instrument. For these assays, 36 nM antibody was immobilized on anti-human Fc (AHC) sensors in 1× kinetic buffer (ForteBio). The sensors were then dipped in wells containing a 3× serial dilution of human 5T4 ranging from 1 μM to 1.37 nM. The association was allowed to reach equilibrium. Sensors were then moved to wells containing only 1× kinetic buffer and allowed to dissociate to equilibrium. Association and dissociation rates were measured and from these, monovalent KDS were calculated using the onboard analysis software (ForteBio).

HEK-5T4 cells = experiment: Cell binding (flow cytometry), HEK-5T4 cells; assay type: cell-based
Description: (§2) Antibodies that were selected for binding to 5T4, for example, such as those described in Example 2, were evaluated for binding to cells that express 5T4. Cells were harvested at 70-90% confluence on the day of the assay. In a v-bottom 96-well plate (Costar 3897), 100,000 cells per well were incubated with 50 μL per well 8- or 12-point antibody dilution series for 30 minutes at +4° C. After incubation, cells were washed once with PBS by centrifugation at 200×g for 5 minutes. Cells were then incubated with 50 μL per well of Alexa Fluor 488 Goat anti-human IgG Fab (Jackson Immuno Research 109-547-003) at 1:100 dilution for 30 minutes at +4° C. Cells were washed twice with PBS by centrifugation at 200×g for 5 minutes and were acquired on iQue Screener Plus (Sartorius). Mean fluorescence intensities of BL1 (Alexa-Fluor-488) channel were plotted against antibody concentrations to generate a dose response curve and EC50 values.

MCF-7 cells = experiment: Cell binding (flow cytometry), MCF-7 cells; assay type: cell-based
Description: as §2

HEK-cyno-5T4 cells = experiment: Cell binding (flow cytometry), HEK-cyno-5T4 cells; assay type: cell-based
Description: as §2

B1: mAbA17 (antibody, V domains shown)
VH: EVQLVESGGGLVQPGGSLRLSCAASGFTFSRYWIHWVRQAPGKGLEWVAAIFPYSGSTLYADSVKGRFTISADTSKNTAYLQMNSLRAEDTAVYYCARSPSRSILPSGLDYWGQGTLVTVSS
VL: DIQMTQSPSSLSASVGDRVTITCRASQSVSSAVAWYQQKPGKAPKLLIYSASSLYSGVPSRFSGSRSGTDFTLTISSLQPEDFATYYCQQGDGSPYTFGQGTKVEIKR
notes: also called Antibody mAbA17
- binding result [1]: no binding
- EC50 [2]: 0.198 nM
- EC50 [3]: 0.164 nM
- EC50 [4]: 0.153 nM
- EC50 [5]: 0.183 nM
- Kd [6]: 21.1 nM

B2: mAbA4 (antibody, V domains shown)
VH: EVQLVESGGGLVQPGGSLRLSCAASGFTFSRYYIHWVRQAPGKGLEWVAFISPGGSYTYYADSVKGRFTISADTSKNTAYLQMNSLRAEDTAVYYCAREYYSMGVLDYWGQGTLVTVSS
VL: DIQMTQSPSSLSASVGDRVTITCRASQSVSSAVAWYQQKPGKAPKLLIYSASSLYSGVPSRFSGSRSGTDFTLTISSLQPEDFATYYCQQAYESPYTFGQGTKVEIKR
notes: also called Antibody mAbA4
- binding result [1]: no binding
- EC50 [2]: 0.182 nM
- EC50 [3]: 0.133 nM
- EC50 [4]: 0.122 nM
- EC50 [5]: 0.393 nM
- Kd [6]: 30.2 nM

B3: mAbA15 (antibody, V domains shown)
VH: EVQLVESGGGLVQPGGSLRLSCAASGFTFSSYYIHWVRQAPGKGLEWVAYITSTGSYTEYADSVKGRFTISADTSKNTAYLQMNSLRAEDTAVYYCARYDRSTRYSGLDYWGQGTLVTVSS
VL: DIQMTQSPSSLSASVGDRVTITCRASQSVSSAVAWYQQKPGKAPKLLIYSASSLYSGVPSRFSGSRSGTDFTLTISSLQPEDFATYYCQQAYATPVTFGQGTKVEIKR
notes: also called Antibody mAbA15
- binding result [1]: no binding
- EC50 [2]: 0.229 nM
- EC50 [3]: 0.124 nM
- EC50 [4]: 0.138 nM
- EC50 [5]: 0.19 nM
- Kd [6]: 11.2 nM

B4: mAbA17: 5T4 antibody comprising VH of SEQ ID NO:62 and VL of SEQ ID NO:63 (antibody, V domains shown)
VH: EVQLVESGGGLVQPGGSLRLSCAASGFTFSRYWIHWVRQAPGKGLEWVAAIFPYSGSTLYADSVKGRFTISADTSKNTAYLQMNSLRAEDTAVYYCARSPSRSILPSGLDYWGQGTLVTVSS
VL: DIQMTQSPSSLSASVGDRVTITCRASQSVSSAVAWYQQKPGKAPKLLIYSASSLYSGVPSRFSGSRSGTDFTLTISSLQPEDFATYYCQQGDGSPYTFGQGTKVEIK
modifications: Antibody mAbA17 VH Sequence; Antibody mAbA17 VL Sequence
- binding to HEK-5T4 cells (HEK-5T4 cells): binding
- binding to MCF-7 cells (MCF-7 cells): binding
- binding to HEK-cyno-5T4 cells (HEK-cyno-5T4 cells): binding

B5: mAbA4: 5T4 antibody comprising VH of SEQ ID NO:25 and VL of SEQ ID NO:26 (antibody, V domains shown)
VH: EVQLVESGGGLVQPGGSLRLSCAASGFTFSRYYIHWVRQAPGKGLEWVAFISPGGSYTYYADSVKGRFTISADTSKNTAYLQMNSLRAEDTAVYYCAREYYSMGVLDYWGQGTLVTVSS
VL: DIQMTQSPSSLSASVGDRVTITCRASQSVSSAVAWYQQKPGKAPKLLIYSASSLYSGVPSRFSGSRSGTDFTLTISSLQPEDFATYYCQQAYESPYTFGQGTKVEIK
modifications: Antibody mAbA4 VH Sequence; Antibody mAbA4 VL Sequence
- binding to HEK-5T4 cells (HEK-5T4 cells): binding
- binding to MCF-7 cells (MCF-7 cells): binding
- binding to HEK-cyno-5T4 cells (HEK-cyno-5T4 cells): binding

B6: mAbA15: 5T4 antibody comprising VH of SEQ ID NO:44 and VL of SEQ ID NO:45 (antibody, V domains shown)
VH: EVQLVESGGGLVQPGGSLRLSCAASGFTFSSYYIHWVRQAPGKGLEWVAYITSTGSYTEYADSVKGRFTISADTSKNTAYLQMNSLRAEDTAVYYCARYDRSTRYSGLDYWGQGTLVTVSS
VL: DIQMTQSPSSLSASVGDRVTITCRASQSVSSAVAWYQQKPGKAPKLLIYSASSLYSGVPSRFSGSRSGTDFTLTISSLQPEDFATYYCQQAYATPVTFGQGTKVEIK
modifications: Antibody mAbA15 VH Sequence; Antibody mAbA15 VL Sequence
- binding to HEK-5T4 cells (HEK-5T4 cells): binding
- binding to MCF-7 cells (MCF-7 cells): binding
- binding to HEK-cyno-5T4 cells (HEK-cyno-5T4 cells): binding
